The experiment addresses adalimumab. Nature of the experiment: SPR; ligand on CM5; max response at 800 nM, rounded to 50 Ru. (Surface plasmon resonance follows binding to a sensor surface in real time, without labels.)

As for “ZGE0214 (domain E with A/R/I at positions 33/40/51) (designed binder)”, the max response (Ru) stood at 4100 Ru.

“ZGE0234 (domain E with A/G/R at positions 33/40/51) (designed binder)”: the max response (Ru) worked out at 2950 Ru.

The values are drawn from US20250277006A1.
